# Legend:
# Tie2 / α5 integrin = target: T1, Tie2 / α5 integrin (Homo sapiens, UniProt P08648); assay: Tie2 immunoprecipitation from fractionated lysates, blotted for α5 integrin; type: cell-based; settings: peptide-treated insoluble fraction; with 200 ng/ml Ang2 or no growth factor
# T1 construct: host or cells: human dermal microvascular endothelial cells (MECs)
# Protocol: Finally, it was determined whether or not the α5 integrin subunit remains complexed with Tie2 following its disassociation with β1 integrin.
# The isolation of Triton X-100 soluble and insoluble fractions was performed using modifications to previously-described procedures (see, e.g., Lampugnani et al., J Cell Biol. 1995; 129(1):203-217). FN1-coated six-well plates were seeded with 2.5×10^6 cells and cultured for forty-eight hours, as described above. The cultures were then serum starved for ninety minutes in EBM-2 media, treated with 100 μM AXT107 or DMSO vehicle, and fifteen minutes with 1 mM sodium vanadate. The cells were then stimulated with either 100 ng/ml VEGFA, 400 ng/ml Ang2, or PBS for fifteen minutes. The plates were then transferred to ice and washed twice with cold dPBS containing Ca^2+ and Mg^2+ and twice with EBM-2 media. The media was then removed and the cells incubated for thirty minutes on ice, at 4° C. in 200 μl of Triton X-100 extraction buffer (10 mM Tris-HCl, pH 7.5; 150 mM NaCl; 2 mM CaCl2; 1% NP-40; 1% […]; and a protease inhibitor cocktail (Cell Signaling, Cat #: 5871)) with occasional agitation. The extraction buffer was gently collected and centrifuged at 12,000×g for five minutes. […] Samples were analyzed by western blot as described above. […]
# Erk1/2 = assay: Western blot of MEC lysates: Erk1/2 phosphorylation; type: cell-based, human; settings: all tested conditions
# Protocol: To investigate the effects of the integrin inhibitor AXT107 on Tie2 signaling, confluent monolayers of microvascular endothelial cells (MECs) on fibronectin-coated dishes were treated with various concentrations of AXT107 followed by exposure to the Tie2 ligands Ang1 or Ang2.
# Human dermal microvascular endothelial cells (Lonza) were maintained at 37° C. and 5% CO2 in EBM-2MV medium (Lonza) and used between passages two through seven. Where applicable, cells were serum starved in EBM-2 medium (Lonza) with no supplements. For FITC-Dextran permeability assays phenol red-free media were used to avoid auto-fluorescence. […]
# For Ang1/2 signaling investigations, cell culture dishes (10 cm diameter) were coated with 5 μg/ml fibronectin (FN1; Sigma-Aldrich, St. Louis, Mo.) for two hours at 37° C. […] Specific proteins were identified by Western blot, using the following primary antibodies: Cell Signaling—phospho-Tie2 (Y992) (Cat #: 4221), Tie2 (Cat #: 7403), phospho-Stat3 (Y705) (Cat #: 4113), Stat3 (Cat #: 4904), phospho-Akt (S473) (Cat #: 4058), Akt (Cat #: 9272), phospho-p44/42 MAPK (T202/Y204) (Cat #: 4370), p44/42 MAPK (Cat #: 4695); BD Transduction Laboratories—β1 integrin (Cat #: 610467); Millipore—α5 integrin (Cat #: AB1928) and detected with HRP-conjugated goat anti-rabbit and sheep anti-mouse secondary antibodies (GE healthcare).
# integrin α5β1 = integrin α5β1 (Homo sapiens, UniProt P05556+P08648); settings: Lee et al. 2014; Lima et al. 2017; cited from earlier work
# Sequence of integrin α5β1 (P08648 42-1049): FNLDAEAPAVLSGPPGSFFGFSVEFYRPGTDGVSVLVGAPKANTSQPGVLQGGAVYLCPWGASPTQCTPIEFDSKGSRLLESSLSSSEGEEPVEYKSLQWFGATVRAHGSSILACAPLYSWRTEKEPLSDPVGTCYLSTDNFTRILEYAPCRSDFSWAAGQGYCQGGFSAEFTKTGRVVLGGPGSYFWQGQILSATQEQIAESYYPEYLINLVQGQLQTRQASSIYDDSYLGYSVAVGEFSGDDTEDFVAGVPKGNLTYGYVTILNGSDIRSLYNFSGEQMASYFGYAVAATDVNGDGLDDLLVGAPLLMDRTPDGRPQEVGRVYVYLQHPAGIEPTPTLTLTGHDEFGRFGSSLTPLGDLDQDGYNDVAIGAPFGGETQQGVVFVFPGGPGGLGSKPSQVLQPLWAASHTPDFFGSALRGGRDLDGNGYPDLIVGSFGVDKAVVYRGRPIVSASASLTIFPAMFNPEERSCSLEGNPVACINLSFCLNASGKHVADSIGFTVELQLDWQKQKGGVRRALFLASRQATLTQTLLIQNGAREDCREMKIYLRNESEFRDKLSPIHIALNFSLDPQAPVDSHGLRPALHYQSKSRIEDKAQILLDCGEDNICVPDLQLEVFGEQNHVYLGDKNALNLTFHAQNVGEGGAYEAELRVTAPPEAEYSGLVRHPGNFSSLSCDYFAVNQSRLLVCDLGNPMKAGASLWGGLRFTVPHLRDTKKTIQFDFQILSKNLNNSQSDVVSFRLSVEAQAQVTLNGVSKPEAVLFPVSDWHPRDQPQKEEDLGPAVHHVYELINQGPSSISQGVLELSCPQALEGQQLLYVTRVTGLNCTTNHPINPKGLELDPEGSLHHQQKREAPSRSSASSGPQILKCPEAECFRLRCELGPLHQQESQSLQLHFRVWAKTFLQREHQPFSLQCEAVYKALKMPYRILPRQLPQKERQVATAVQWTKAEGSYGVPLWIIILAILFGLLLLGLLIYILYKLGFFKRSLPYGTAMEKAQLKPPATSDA
# Sequence of integrin α5β1 (P05556 21-798): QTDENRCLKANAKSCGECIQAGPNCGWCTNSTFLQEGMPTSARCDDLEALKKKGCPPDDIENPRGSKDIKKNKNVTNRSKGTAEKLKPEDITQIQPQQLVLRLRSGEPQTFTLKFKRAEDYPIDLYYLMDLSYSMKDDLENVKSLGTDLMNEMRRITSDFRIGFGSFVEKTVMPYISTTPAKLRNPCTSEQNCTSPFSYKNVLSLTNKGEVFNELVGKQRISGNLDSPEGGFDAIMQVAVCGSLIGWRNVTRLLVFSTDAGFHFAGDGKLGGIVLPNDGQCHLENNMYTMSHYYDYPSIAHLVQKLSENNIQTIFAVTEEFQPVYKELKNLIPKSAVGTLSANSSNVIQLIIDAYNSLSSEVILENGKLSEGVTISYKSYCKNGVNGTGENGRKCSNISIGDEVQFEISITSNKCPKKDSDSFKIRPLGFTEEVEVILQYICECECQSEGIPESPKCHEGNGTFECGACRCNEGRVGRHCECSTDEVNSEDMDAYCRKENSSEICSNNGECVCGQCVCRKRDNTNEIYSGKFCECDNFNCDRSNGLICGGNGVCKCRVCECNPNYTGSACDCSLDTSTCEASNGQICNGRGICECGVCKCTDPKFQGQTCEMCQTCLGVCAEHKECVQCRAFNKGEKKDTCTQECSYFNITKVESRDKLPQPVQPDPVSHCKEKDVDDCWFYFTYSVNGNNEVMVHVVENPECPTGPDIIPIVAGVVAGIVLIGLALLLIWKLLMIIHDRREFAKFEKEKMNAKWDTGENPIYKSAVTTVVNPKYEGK
# T1 sequence (P08648 42-894 limits assumed): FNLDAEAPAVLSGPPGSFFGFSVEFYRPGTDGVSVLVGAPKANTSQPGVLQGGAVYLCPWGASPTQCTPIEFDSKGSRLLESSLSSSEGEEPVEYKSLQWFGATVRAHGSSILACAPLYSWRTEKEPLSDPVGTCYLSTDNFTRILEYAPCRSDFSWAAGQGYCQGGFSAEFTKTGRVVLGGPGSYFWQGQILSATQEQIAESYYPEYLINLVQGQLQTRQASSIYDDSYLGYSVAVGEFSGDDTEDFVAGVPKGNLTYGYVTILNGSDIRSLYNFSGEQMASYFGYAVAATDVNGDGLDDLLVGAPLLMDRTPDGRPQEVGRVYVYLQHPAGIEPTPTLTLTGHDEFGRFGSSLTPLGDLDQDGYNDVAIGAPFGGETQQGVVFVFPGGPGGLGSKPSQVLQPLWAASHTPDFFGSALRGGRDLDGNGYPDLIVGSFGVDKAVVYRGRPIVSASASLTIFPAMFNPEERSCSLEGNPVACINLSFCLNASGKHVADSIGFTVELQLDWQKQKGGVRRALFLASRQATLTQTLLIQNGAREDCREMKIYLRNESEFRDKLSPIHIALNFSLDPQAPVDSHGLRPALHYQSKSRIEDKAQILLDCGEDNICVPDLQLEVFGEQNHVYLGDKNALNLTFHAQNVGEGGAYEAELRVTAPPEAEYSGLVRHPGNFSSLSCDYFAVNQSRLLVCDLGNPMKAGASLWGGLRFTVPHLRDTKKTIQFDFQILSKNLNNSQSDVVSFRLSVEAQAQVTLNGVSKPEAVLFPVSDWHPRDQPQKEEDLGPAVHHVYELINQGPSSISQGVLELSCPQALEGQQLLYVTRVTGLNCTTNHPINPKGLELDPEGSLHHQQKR
# T1 sequence (P08648 895-1049 limits assumed): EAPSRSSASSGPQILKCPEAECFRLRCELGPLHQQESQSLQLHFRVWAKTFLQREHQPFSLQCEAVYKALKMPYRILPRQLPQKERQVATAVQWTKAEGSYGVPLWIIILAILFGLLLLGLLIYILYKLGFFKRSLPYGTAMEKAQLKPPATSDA
# T1 sequence (Q02763 23-1124 partner): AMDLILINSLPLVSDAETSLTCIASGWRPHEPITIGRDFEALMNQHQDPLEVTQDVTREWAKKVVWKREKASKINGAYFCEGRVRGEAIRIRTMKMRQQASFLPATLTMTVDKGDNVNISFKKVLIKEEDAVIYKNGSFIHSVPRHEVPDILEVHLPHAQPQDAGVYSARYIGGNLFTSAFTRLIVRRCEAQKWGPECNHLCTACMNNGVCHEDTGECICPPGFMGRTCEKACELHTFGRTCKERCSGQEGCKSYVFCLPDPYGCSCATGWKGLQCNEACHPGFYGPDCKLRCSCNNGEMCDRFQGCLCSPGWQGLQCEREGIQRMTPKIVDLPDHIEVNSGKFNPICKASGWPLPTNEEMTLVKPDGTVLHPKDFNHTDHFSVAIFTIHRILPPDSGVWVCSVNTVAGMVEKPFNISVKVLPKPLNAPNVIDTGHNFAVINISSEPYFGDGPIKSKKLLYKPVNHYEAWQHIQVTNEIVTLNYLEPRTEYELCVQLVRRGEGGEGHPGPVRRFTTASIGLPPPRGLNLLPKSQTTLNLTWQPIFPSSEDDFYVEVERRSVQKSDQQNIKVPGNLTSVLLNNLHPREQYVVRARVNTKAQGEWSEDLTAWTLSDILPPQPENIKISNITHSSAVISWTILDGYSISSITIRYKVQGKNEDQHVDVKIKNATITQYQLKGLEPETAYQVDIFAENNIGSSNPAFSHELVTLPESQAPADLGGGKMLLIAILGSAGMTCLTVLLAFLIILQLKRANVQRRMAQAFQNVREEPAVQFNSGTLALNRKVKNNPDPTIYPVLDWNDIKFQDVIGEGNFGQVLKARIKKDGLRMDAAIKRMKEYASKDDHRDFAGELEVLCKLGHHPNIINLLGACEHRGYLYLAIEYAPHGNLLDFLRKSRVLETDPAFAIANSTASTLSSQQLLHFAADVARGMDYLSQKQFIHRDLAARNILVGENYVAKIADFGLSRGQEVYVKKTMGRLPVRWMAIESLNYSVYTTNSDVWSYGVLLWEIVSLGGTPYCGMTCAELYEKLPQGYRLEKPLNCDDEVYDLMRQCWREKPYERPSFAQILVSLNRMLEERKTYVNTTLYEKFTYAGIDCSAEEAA
sequence,measurement,setting,value
LRRFSTAPFAFIDINDVINF [AXT107],α5 integrin complexed with Tie2,Tie2 / α5 integrin,"α5 integrin was observed in the peptide-treated, insoluble fraction following immunoprecipitation of Tie2"
same,Erk1/2 phosphorylation,Erk1/2,remained constant in all tested conditions
same,Binding to integrin α5β1,integrin α5β1,binds tightly
